Test results from paper doi:10.1101/2020.12.31.424729 (bioRxiv, 2020).

Target: SARS-CoV-2 Spike ectodomain trimer stabilized with 2 proline mutations (S-2P) (SARS-CoV-2, Wuhan-Hu-1, stabilised)
Assay: cryo-EM structure

Row | Binder | stoichiometry N [Fabs per S-2P trimer]
1 | DH1047 Fab (Fab, V domains shown) VH: QVQLVQSGAEVKKPGASVQVSCQASANTFTNHYIHWVRQAPGQGLEWMGIIYPTGGNTIYAQGFQGRVTMTRDTSLNTIYLELSSLRSEDTAVYYCARDVRVDDSWSGYDLLSGGTYFDYWGQGTLVTVSS VL: not shown | 3
2 | DH1041 Fab (Fab, V domains shown) VH: EVQLVESGGGLVQPGGSLRLSCAASGVTFSSYWMSWVRQAPGKGLEWVANIRQDGSEKYSVDSVKGRFTISRDNAKNSLYLQMNSLRAEDTAVYYCARARRADNSGYYGFHFDCWGQGTLVTVSS VL: QSVLTQPPSVSGAPGQRVTISCTGSSSNIGAGYDVHWYQQLPGTAPKLLIYGNNNRPSGVPDRFSDSKSGTSASLAITRLQAEDEADYYCQSYDSSLSGWVFGGGTKLTVL | 3
